“Also recorded” adds a separate entry of the source. Square brackets hold non-standard residues; d marks the D form. Ends that are not written are not given here. fluorescein = N-terminal fluorescein label; pS = N[C@@H](COP(=O)(O)O)C(=O)O
Assays:
[1] = system: all seven human 14-3-3 isoforms; assay: Fluorescence polarization (FP) direct binding assay, statements over all isoforms; conditions: FP direct binding; all seven isoforms; fluorescein-labeled peptide 1 nM; FP buffer pH 7
Experimental: (§1) Human MBP-tagged 14-3-3 isoforms were expressed from pMAL2CX plasmids [[Kilisch et al. (2016)], [Yuan et al. (2003)]] in E. coli BL21DE3 cells. After induction with […] isopropyl-β-D-thiogalactoside, the protein was expressed for 4 h at room temperature. Cells were lysed in MBP-lysis buffer [50 mM Tris–HCl pH 7.5, 150 mM NaCl, 5 mM MgCl2, 1 mM PMSF, 1× cOmplete Protease Inhibitor EDTA-free (Roche)] using a French Pressure cell (FRENCH Press, Thermo, United States). Following centrifugation at 42,000 × g and 4°C for 30 min, the supernatant was transferred to a Maltose-agarose column (1.5 ml bed volume; New England Biolabs GmbH, Germany). Captured proteins were washed six times with 10 ml wash buffer (50 mM Tris–HCl pH 7.5, 150 mM NaCl, 5 mM MgCl2) prior to elution using wash buffer including 15 mM D-maltose. To remove the MBP tag, fusion proteins were incubated with Factor Xa (New England Biolabs GmbH, Germany), at a final concentration of 0.4 μg per 1 mg fusion protein for 24 h at RT following another 72 h at 4°C. Anion exchange chromatography was finally applied to separate residual MBP using a buffer gradient from 20 mM Tris pH 8 to 20 mM Tris pH 8 with 1 M NaCl. For this a RESOURCE Q column (GE Healthcare, United Kingdom) was utilized, employing an ÄKTApurifier (GE Healthcare, United Kingdom) or an NGC Quest Chromatography System (Bio-Rad Laboratories GmbH, Germany).
(§2) FP was used to determine binding affinities of different phosphorylated and non-phosphorylated peptides derived from LRRK2 sequences (Peps4LS GmbH, Germany) toward human 14-3-3 isoforms. Direct binding assays were performed and evaluated as previously described ([Muda et al., 2014]; [Manschwetus et al., 2019]). Briefly, both dilution series of 14-3-3 isoforms ranging from final concentrations of at least 5 μM down to picomolar concentrations and dilutions of the respective fluorescein-labeled peptide (final conc. 1 nM) were prepared in FP buffer (20 mM MOPS pH 7, 150 mM NaCl, 0.005% CHAPS). Subsequently, samples were mixed in 384-well microtiter plates as duplicates (BRAND plates, pureGrade, black, BRAND GmbH & Co. KG, Germany) in a 1:1 ratio and measured using a CLARIOstar plate reader (BMG LABTECH, Germany). Two protein preparations were utilized for at least two independent replications for all measurements while high affinity binding peptides were particularly measured with a minimum of three independent replications for statistical evaluation. Data was analyzed with GraphPad Prism 6.0 (GraphPad Software, San Diego, CA, United States) by plotting obtained FP signals (mPol) against the logarithmic 14-3-3 protein concentrations. Data points represent means ± standard error of mean (SEM) of duplicates. “Ctrl.” indicates the FP signal of fluorescein-labeled peptides without 14-3-3 protein. Sigmoidal dose-response fitting was performed to define KD-values.

human 14-3-3γ = target: T1, human 14-3-3γ (Homo sapiens, UniProt P61981); assay: Fluorescence polarization (FP) direct binding assay; conditions: dilution series of 14-3-3γ (at least 5 μM down to pM), fluorescein-labeled peptide 1 nM
T1 construct: MBP (cleaved yes); made in house; host or cells: E. coli BL21DE3
T1 sequence (P61981 1-247): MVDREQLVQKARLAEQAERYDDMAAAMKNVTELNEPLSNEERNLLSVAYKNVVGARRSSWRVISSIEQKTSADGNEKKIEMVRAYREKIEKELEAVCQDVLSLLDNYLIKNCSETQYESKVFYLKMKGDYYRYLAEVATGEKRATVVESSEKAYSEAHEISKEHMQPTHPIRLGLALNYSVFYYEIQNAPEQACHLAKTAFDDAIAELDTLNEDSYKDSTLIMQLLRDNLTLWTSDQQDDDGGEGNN
Experimental: as §1, §2

human 14-3-3 isoform σ = target: T2, human 14-3-3 isoform σ (Homo sapiens, UniProt P31947); assay: as above; conditions: fluorescein-labeled peptide 1 nM
T2 construct: MBP (cleaved yes); made in house; host or cells: E. coli BL21DE3
T2 sequence (P31947 1-248): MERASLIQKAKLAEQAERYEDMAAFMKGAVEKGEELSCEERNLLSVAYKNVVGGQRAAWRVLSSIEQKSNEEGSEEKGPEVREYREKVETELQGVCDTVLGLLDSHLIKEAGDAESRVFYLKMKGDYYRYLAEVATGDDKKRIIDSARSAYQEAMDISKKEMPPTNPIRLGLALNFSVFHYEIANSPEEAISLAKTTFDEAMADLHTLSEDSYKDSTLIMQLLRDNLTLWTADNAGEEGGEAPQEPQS
Experimental: as §1, §2

human 14-3-3 isoform ϵ = target: T3, human 14-3-3 isoform ϵ (Homo sapiens, UniProt P62258); assay: as above; conditions: fluorescein-labeled peptide 1 nM
T3 construct: MBP (cleaved yes); made in house; host or cells: E. coli BL21DE3
T3 sequence (P62258 1-255): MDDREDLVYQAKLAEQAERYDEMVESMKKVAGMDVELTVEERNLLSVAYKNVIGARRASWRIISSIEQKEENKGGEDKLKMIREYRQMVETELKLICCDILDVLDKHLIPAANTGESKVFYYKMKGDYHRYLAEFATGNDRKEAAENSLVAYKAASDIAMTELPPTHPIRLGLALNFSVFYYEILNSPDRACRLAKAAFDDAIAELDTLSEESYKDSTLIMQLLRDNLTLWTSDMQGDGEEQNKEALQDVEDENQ
Experimental: as §1, §2

14-3-3γ = 14-3-3γ (UniProt P61981); assay: fluorescence polarization direct binding
14-3-3ε = 14-3-3ε (UniProt P62258); assay: fluorescence polarization direct binding; conditions: reference: unphosphorylated S1443/S1444 peptide; sites S1444
R1441C/pS1444 = target: T4, R1441C/pS1444 (R1441C (stands in the printed letters)); assay: fluorescence polarisation; direct binding; dilution series of 14-3-3 isoform (at least 5 μM down to picomolar) mixed with 1 nM fluorescein-labelled peptide; 20 mM MOPS pH 7, 150 mM NaCl, 0.005% CHAPS; 384-well plates; conditions: both partners purified
T4 construct: LRRK2-derived peptide of the Roc domain with the familial PD mutation R1441C, phosphorylated at S1444; source: synthetic peptide (Peps4LS GmbH)
T4 peptide: fluorescein-LFNIKACAS[pS]SPVILVGT

pS1444 = assay: as above

## HIEVRKELAEKMRRpTSVE [pT2524, fluorescein-labeled phosphopeptide of the LRRK2 C-terminus comprising pT2524]
[1]
  Binding to the human 14-3-3 isoforms, in words: Micromolar affinities; also recorded: low micromolar range
Human 14-3-3γ; FP buffer pH 7
  Binding to 14-3-3γ, in words: micromolar affinities
Human 14-3-3γ; FP buffer pH 7, listed as Phosphorylated T2524
  Binding to 14-3-3γ, in words: clearly binds with micromolar affinity
Human 14-3-3 isoform σ
  Binding to 14-3-3 isoform σ, in words: worst binding

## LFNIKARApSpSSPVILVGT [pS1443/pS1444, fluorescein-labeled LRRK2 Roc domain peptide doubly phosphorylated at S1443 and S1444]
[1]
  Binding to the human 14-3-3 isoforms, in words: micromolar affinities; also recorded: reduced nanomolar binding affinity to micromolar values
Human 14-3-3γ; FP buffer pH 7
  Binding to 14-3-3γ, in words: reduced binding to 14-3-3γ compared to pS1444
Human 14-3-3 isoform ϵ
  Binding to 14-3-3 isoform ϵ, in words: not fitted due to an unusual binding behavior

## LRRK2 (leucine-rich repeat kinase 2) (from UniProt Q5S007) pS910 peptide
14-3-3γ; reference: unphosphorylated S910 peptide, sites S910
  binding against the reference: gained

## LRRK2 (leucine-rich repeat kinase 2) (from UniProt Q5S007) pS1443/pS1444 peptide
14-3-3γ; reference: pS1444 peptide, sites S1443
  KD: weaker; reference 106 ± 4
14-3-3γ; reference: unphosphorylated S1443/S1444 peptide, sites S1443,S1444
  binding against the reference: gained

## LRRK2 (leucine-rich repeat kinase 2) (from UniProt Q5S007) pS1444 peptide
14-3-3ε
  KD: gained; reference no binding detected

B1: human 14-3-3 isoform η (recombinant, MBP tag removed) (natural protein, UniProt Q04917 1-246, looked up)
chain: MGDREQLLQRARLAEQAERYDDMASAMKAVTELNEPLSNEDRNLLSVAYKNVVGARRSSWRVISSIEQKTMADGNEKKLEKVKAYREKIEKELETVCNDVLSLLDKFLIKNCNDFQYESKVFYLKMKGDYYRYLAEVASGEKKNSVVEASEAAYKEAFEISKEQMQPTHPIRLGLALNFSVFYYEIQNAPEQACLLAKQAFDDAIAELDTLNEDSYKDSTLIMQLLRDNLTLWTSDQQDEEAGEGN
notes: 14-3-3 eta, human; Expressed from pMAL2CX plasmids; also called 14-3-3η; source: E. coli BL21DE3, purified (maltose-agarose, Factor Xa, anion exchange)
R1441C/pS1444
  fold decrease in affinity against pS1444: ≥ 30 fold
pS1444
  Kd: 0.085 µM

B2: human 14-3-3 isoform θ (recombinant, MBP tag removed) (natural protein, UniProt P27348 1-245, looked up)
chain: MEKTELIQKAKLAEQAERYDDMATCMKAVTEQGAELSNEERNLLSVAYKNVVGGRRSAWRVISSIEQKTDTSDKKLQLIKDYREKVESELRSICTTVLELLDKYLIANATNPESKVFYLKMKGDYFRYLAEVACGDDRKQTIDNSQGAYQEAFDISKKEMQPTHPIRLGLALNFSVFYYEILNNPELACTLAKTAFDEAIAELDTLNEDSYKDSTLIMQLLRDNLTLWTSDSAGEECDAAEGAEN
notes: 14-3-3 theta, human; Expressed from pMAL2CX plasmids; also called 14-3-3θ; source: E. coli BL21DE3, purified (maltose-agarose, Factor Xa, anion exchange)
R1441C/pS1444
  fold decrease in affinity against pS1444: ≥ 30 fold
pS1444
  Kd: 0.195 µM

B3: human 14-3-3 isoform σ (recombinant, MBP tag removed) (natural protein, UniProt P31947 1-248, looked up)
chain: MERASLIQKAKLAEQAERYEDMAAFMKGAVEKGEELSCEERNLLSVAYKNVVGGQRAAWRVLSSIEQKSNEEGSEEKGPEVREYREKVETELQGVCDTVLGLLDSHLIKEAGDAESRVFYLKMKGDYYRYLAEVATGDDKKRIIDSARSAYQEAMDISKKEMPPTNPIRLGLALNFSVFHYEIANSPEEAISLAKTTFDEAMADLHTLSEDSYKDSTLIMQLLRDNLTLWTADNAGEEGGEAPQEPQS
notes: 14-3-3 sigma, human; Expressed from pMAL2CX plasmids; also called 14-3-3σ; source: E. coli BL21DE3, purified (maltose-agarose, Factor Xa, anion exchange)
R1441C/pS1444
  fold decrease in affinity against pS1444: ≥ 30 fold
pS1444
  Kd: 0.802 µM

From article PMC7155755, “Binding of the Human 14-3-3 Isoforms to Distinct Sites in the Leucine-Rich Repeat Kinase 2” (Frontiers in Neuroscience, 2020)
